Source: patent US11013783B2, “Anti-inflammatory peptides and methods for treating inflammatory diseases” (INSTITUT NATIONAL DE LA RECHERCHE AGRONOMIQUE (INRA), priority 2012, dated 2021)

Legend:
[1] = tested on: IL-8 production by HT29-MTX cells stimulated by TNFα; assay: IL-8 production of HT29-MTX cells incubated with peptides and stimulated by TNFα; type: cell-based; details: FIG. 4
Protocol: The inventors then incubated mucus secreting intestinal epithelial HT29-MTX cells with two peptide fragments obtained from the protein ZP05614546.1.
The inventors measured the IL-8 production (as a marker of inflammation) after stimulation of HT29-MTX cells incubated or not with said peptides and stimulated by TNFα.

colonic inflammation = assay: Colonic inflammation model in mice treated daily orally with L. lactis expressing the protein; type: in vivo, C57B16 mice; details: M21/2 data not shown
Protocol: C57B16 mice (6-8 weeks old) are kept at room temperature, under 12 h light/dark cycles and having free access to food and water, except the day before the induction of colitis, where they are fasted for 12 h.
Colonic inflammation is induced by treatments with Dextran Sodium Sulfate […]. In details, DSS is dissolved in drinking water (3 or 5% wt/vol) and the animals are free to drink this solution for 7-days. Water consumption is measured in the DSS-treated groups and compared to groups of naïve mice drinking water: no difference is observed for the volume of liquid consumed, between water and DSS-drinking mice. Mice are treated daily orally, with 200 μL of 1 to 5.10^9 colony forming units (cfu) of strains to be tested or bacterial milieu alone—i.e. L. lactis expressing the protein ZP 05614546.1 (Accession number changed to WP_005932151), its ortholog of strain M21/2 (SEQ ID NO: 4) or no protein-. […] Body weight and survival rate are measured daily after the induction of colitis (or right after the first gavage, in case of preventive treatment). DAI (disease activity index is also measured):
On day 7 after adding DSS to their drinking water, mice are sacrificed and colons are harvested for measure of several parameters of inflammation: bowel thickness and length, myeloperoxydase (MPO) activity, cytokine expression (IL-17A, IFN-γ, IL10, IL12p70 or other cytokines) can be measured. […]

[2] = tested on: LPS-dependent NFκB activation; assay: LPS-dependent NFκB activation in HEK293T cells stably expressing TLR4, MD2 and CD14, NFκB luciferase reporter; type: cell-based; details: FIG. 2
NFκB signaling pathway = assay: NFκB luciferase reporter system in HEK 293T cells transfected with pCMV plasmids (Carma-1-dependent activation); type: cell-based, human; details: for NFκB signaling pathway inhibition (%): HEK 293T NFκB reporter, proteins cloned in 3× Flag (C-term) pCMV vector, table I
From the text: In order to further analyze the activity of the polypeptides of the invention, the inventors decided to transfect the protein-coding cDNA directly into mammalian epithelial cell model.
The sequence of the protein ZP05614546.1 (SEQ ID NO: 2) has been cloned in 3× Flag (C-term) pCMV vector.
In order to test the NFκB signaling pathway inhibiting activity from the orthologs of ZP05614546.1, the other protein sequences from FIG. 3 were also cloned in 3× Flag (C-term) pCMV vector and tested in the NFκB reporter system in human epithelial cells HEK 293T.
So as to better quantify the anti-inflammatory properties of ZP05614546.1 and orthologs, increasing quantity of pCMV plasmid (i.e. 50, 25 and 12.5 ng) containing SEQ ID NO: 2 and SEQ ID NO: 4 were used to transfected HEK293 cell line. Then, the evolution of NFκB signaling pathway expression was determined as previously. […] Accordingly, the SEQ ID NO: 4 from the strain M21/2 is 100% (2 fold) more efficient in inhibiting NFκB signaling pathway than the protein ZP05614546.1.
In order to further analyze the activity of the polypeptides of the invention, the inventors decided to clone into the previously described pCMV plasmid, the sequences corresponding to amino acids 23-135 of SEQ ID NO: 2 (Mut 1), 1-39/72-135 of SEQ ID NO: 2 (Mut 2), 1-99 of SEQ ID NO: 2 (Mut 3), 35-77 of SEQ ID NO: 2 (p35-′7′7) and . . . - . . . of SEQ ID NO: 2 from MAM from F. prausnitzii strain A2-165. The four constructs, Mut 1, Mut 3, p35-77 and p49-70 carry the peptide 1-5.

For “K G N T F L Q S T I N R T I G V L (KGNTFLQSTINRTIGVL; listed as Faecalibacterium prausnitzii) [SEQ ID NO: 47, peptide fragment of ZP05614546.1, region between positions 53 and 68]”, the “anti-inflammatory effect (IL-8 production as a marker of inflammation)” value [1] was “anti-inflammatory effect in a dose dependent manner”.

For “VKGNPIEKNNFGDYAMNALGIAAAVYNLGVAPTKNTVKETEVKFTV (VKGNPIEKNNFGDYAMNALGIAAAVYNLGVAPTKNTVKETEVKFTV; listed as Faecalibacterium prausnitzii) [SEQ ID NO: 48, peptide fragment of ZP05614546.1, region between positions 90 and 135]”, the “anti-inflammatory effect (IL-8 production as a marker of inflammation)” value [1] was “anti-inflammatory effect in a dose dependent manner”.

B1: ZP05614546.1: conserved hypothetical protein of F. prausnitzii strain A2-165 (protein, listed as Faecalibacterium prausnitzii)
chain: MMMPANYSVIAENEMTYVNGGANFIDAIGAVTAPIWTLDNVKTFNTNIVTLVGNTFLQSTINRTIGVLFSGNTTWKEVGNIGKNLFGTNVKGNPIEKNNFGDYAMNALGIAAAVYNLGVAPTKNTVKETEVKFTV
With B1 the “reduction of colonic inflammation” value (colonic inflammation) was “significantly reduce colonic inflammation”, the “inhibition of LPS-dependent NFκB activation” value [2] was “inhibits the LPS-dependent NFκB activation” and the “NFκB signaling pathway inhibition (%)” value (NFκB signaling pathway) was 58 ± 6%. For the same molecule, the “inhibition of Carma-1-dependent NFκB activation” value (NFκB signaling pathway; HEK293T cells, NFκB luciferase reporter, FIG. 1) was “inhibits Carma-1-dependent NFκB activation” and the “inhibition of NFκB signaling pathway” value (NFκB signaling pathway; NFκB reporter system in human epithelial cells HEK 293T, protein cDNA transfected in pCMV vector) was “inhibits the NFκB signaling pathway in a dose-dependent manner”.

B2: M21/2: ortholog of ZP05614546.1 from strain M21/2 (protein, listed as Faecalibacterium prausnitzii)
chain: MMMPANFSAVSENEMTYVMGGSVADYLAPAMGAAQWQNFHKNLITIVGNKYVQGFLDNTVGAMFSGTWTPGDGLTGFGGQFSTIWKKNYTDNVTDESTGAQKFGYGALGVVNSILNVAGNLAAIYNLGFGTAKNIVGEGVYKA
In the case of B2, the “reduction of colonic inflammation” value (colonic inflammation) is reported as “upper than the one observed with ZP 05614546.1 protein”, the “efficiency in inhibiting NFκB signaling pathway relative to protein ZP05614546.1” value (NFκB signaling pathway; 50, 25 and 12.5 ng pCMV plasmid, Carma-1-dependant NF-kB activation, HEK293T, FIG. 9) is reported as 2 fold and the “NFκB signaling pathway inhibition (%)” value (NFκB signaling pathway) is reported as 90 ± 3%.

B3: SL3/3: ortholog of ZP05614546.1 from strain SL3/3 (protein, listed as Faecalibacterium prausnitzii)
chain: MMMPANFSAVSENEMTYVMGGSVADYLAPAMGAAQWQNFHKNLITIVGNKYVQGFLDNTVGAVFSGTWTPGDGLTGFGGQFSKIWKDNYTDNVTGESTGAQKFGYGALGVVNSILNVAGNLAAIYNLGFGTAKNIVGEGVYKA
In the case of B3, the “NFκB signaling pathway inhibition (%)” value (NFκB signaling pathway) is reported as 86 ± 5%.

B4: CNCM4573: ortholog of ZP05614546.1 from strain CNCM-4573 (protein, listed as Faecalibacterium prausnitzii)
chain: MMMPANFSAVSENEMTYVMGGSIADYLAPAMGAAQWQNFHKNLVTIVGNKYVQGFLDNTVGAVFSGTWTPGVGLTGFGGQFSTIWKKNYTDNVTDESTGAQKFGYGALGVVNSILNVAGNLAAIYNLGFGTAKNIVGEGVYKA
In the case of B4, the “NFκB signaling pathway inhibition (%)” value (NFκB signaling pathway) is reported as 89 ± 2%.

B5: L2-62: ortholog of ZP05614546.1 from strain L2-62 (protein, listed as Faecalibacterium prausnitzii)
chain: MMMPANFSAVNAEVVYGGAVADYLPSAWTAESVKRFNSNIITLVSNSFTSHLLKATLGTMFSGSWGSDGVTLFGDNGTFSGLYNVNRLPGGEAQTFGNKIMTTLGLASVVYTLGMKDAAVLTAKKVTNSNGQVWGDLPNNGGSGWVG
In the case of B5, the “NFκB signaling pathway inhibition (%)” value (NFκB signaling pathway) is reported as 34 ± 5%.

B6: KLE1255: ortholog of ZP05614546.1 from strain KLE1255 (protein, listed as Faecalibacterium prausnitzii)
chain: MMMPANFSAVAENEMTYVVGGSLVDVLAPAMTTANWQNVSANVIKIVGNSFLAKYTNDVLAQLFDGNYVPGDVIGYSVKNLDKAYNKGYGTFGGNWGFAVGALNAGMQILGGLSAIYTLGSSSIGLETKSGTLPTL
In the case of B6, the “NFκB signaling pathway inhibition (%)” value (NFκB signaling pathway) is reported as 72 ± 1%.
